Measured values: a protein production outcome set (Wang et al. 2014)

Test: label from the status in PepcDB records
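Also: failed if final PepcDB status was selected cloned or expressed and not failed if soluble or beyond.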

Sequence | protein production
MLFNKMKNYKGFTAVKELWLLNLFILSVFTLSFSVSAASNDVSINNNELIGISYNTIQSDQIVVVFSFTKNITSLPIVKTSMTPAFVEVTFDANTYGKDLTETLINHAGIKGINLDAKTGKVVALISLEKLAVFDVSLNNEKEFSITFNYGESAEIVETLSPAGDDFINSIESIDFRLNGDNEGQILVYLKDSMLAADVNDKLGKLNVEFHNTEIIDDLLYKLDVTDFGTLVTSIETFKEGRNARLVIDVESGFIFTQKQEENLFILTVKKKPEKAPTYLGDTDDFTGRSISLSFQDIPVRTVLQIIADYNEFNLIISDTVTGNITLRLDGVPWDQALSIILKVKGLDKRMQGNILMVAPSDELAAREAQSLQAKQQVEELATLYSEYLQINYAKAAEFSELIKNEDTSILSDRGSVSVDERTNTLLIRDTAKSIEDIKRMITILDVPVRQVVIEARMVTVKDNMNEELGIRWGVTNTDGEFATSGSIEGASSANGTRGVTTPGVGQVPTIGDGLNVNLPVANAAGTIAFQVARLANGTILDLELSALEKENKGEVIASPRITTANQKEAYIEQGVEIPYQEAASSGATATQFKKAVLSLTVTPHITPDDKIILDLVVTQDTISDITSGFAPAIDTQRIGTQVLVNNGETIVLGGIYQQAIISTVSKIPILGDIPYLGWLFRNSSQLNEKKELLIFVTPRIVTEHF | failed
MLFNSFEFMLLFLPIAVIGYFLLQKVNKNFAKLFLVGMSLYFYAYFEVKYLLLIGVSLFTNAFIGQQIIQKINQKTRKVFLIVGLVFNISLLGYFKYSDFFLDNINTLFGTDVPLLKLLLPLGISFITFQKIGFLVDCYKRELTKFNFIDFCLFVTFFPQLIAGPIVHHSKVLPQFQDESKRRPNIENITKGLYIFGIGLTKKVVIADSLAQWADFGFSNVNQLSTTDAWVSSLAYTLQLYFDFSGYCDMAIGAALLFNIILPINFFSPYKSLSIQDFWRRWHMTLGRFFTQYVYIPLGGSRKGQIRTYLNLFTIFLISGIWHGAGWTFVIWGVLHGLAIVIHRLFKNLGGKMPKFIAWILTMGFVHVTWVFFRATSVEDALTMLNRMFNVNYLHIQTALIQFRPETLTGVSIMDNLIYSICNLFPFQVTGDHFNFQTILYLAIGIAIVLFTKNSIEKLESFRPKPIYALALASMFILSLMYLNRVSSFLYFNF | failed
MLFSSIVFLFYFFPAVLLLYYICSFSRRLQNVVLLFASLVFYAWGDFSFLGIMIVSIIINYILGLLVGKFREKKLLAKFFIFVTCAYNLGMLFVFKYLGFVVKNIDKVGNYKLSIPNIALPIGISYFTFKAISYVVDVYKNKVEAEKNPLNIGLYIAFFPEVISGPISRYVKVGEQIKNREHSWQKFSVGACRFITGLGKKVLISNSVSIIADKVFTMNTNGPVPVTLAWLGSIAYTIQIFFDFSGYSDMVIGLGLMFGFKIDENFNYPYISKSITEFWRRWHISLSSWFRDYIYIPLGGSRVDNKDKLIRNLFIVWVSTGVWHGAEWTFIMWGFLNFVFIALEKVFSFDDLKINPVIKHIYALFIINLGWVLFRSENLIQAGKYVACMFGLRGNAFWSNYTFMFVKENAVIFIAAVILSMPIAKKVNKLVYDKVPGYKILNGVYPIAVLGVFFVCISYLIKGTYNPFIYLKF | failed
MLFTMMVSLYTSRVVLATLGVEDFGIYNVVGGVVTMFAIISTSLSSAISRFITIELGKGDLRRLKTVFSTAVVIQFLMALVVVILAELIGVWFLNNKMNIPEVRMNAANWVLQFSIFTFGVNLICIPFNALIIAHERMSAFAYVSILEVSLKLLIVYLLVLMSVDKLIVYGALLLVVAIVITFAYFIYCRRHFKECKCFCRIDRFLLKRMLSFSGWNFIGASSAILRDQGVNIAINLFCGPTVNAARGMAVQVNHAINSFAQNFMTALNPQITKSFAVGDSKYMFTLIFQGARLSFYMLLFLSLPVLMSTEYILSIWLKIVPDYTIIFVRLVLIFAMCESISNPLITAMLATGSIRNYQIVVGGMQMMNFPISYILLERGYAPEITLYVAIGISLCCLALRLFMLRSMIQLPVRSYMKNVFFNICAVTIFSVAIPYLISLRLQSSFYSFLILSFSCIICSFMAIFFVGCKASERVFVVDQVRKLIKNNL | failed
MLFTNLDGVRNVVPVGHRQRRARPVGAGDVRAEKSLRYHLQEHGRLPLNEAVAVLSDVAEALADLKDREIVHRDLKPENILLLGGRRCLADFGIARYAEATIAKHTLKLAGTLAYMAPERWNNQRAASASDIYAPGVVAYELLEETPPFTGPYEHDYHDQHLHGPVRPSPQLRPSWRR | failed
MLGELDLATVILMQKCSYIVGLLSFIYLKMSNRGLPGPVHLAAGFAAMTVGSTLAGYGEWKILSPALWELGSVLFGIAGYALIWLGLKTLSDGRFVNRKTILFTCLVALLAIGVALQVAGNNTFRAALFNGCAALAYLGGAGVLFARWRKEPLLSRLALGAITGVSGLISLAVMKSVLFPGYASINLVTAFFFIIMLNFAISLFVMMLVAERSERKLLVLANTDPLTGVKNRRFFFQTMPAAPDPADAAMLLDIDHFKSINDRFGHAVGDSVLQEVARRISGSIRGGDVLARYGGEEFIIFLPGAGVDKACMIGERIRDAVAINEVDCGGLRVGVTISIGVATTGDMRCDLQMLAEKADRALYRAKTEGRNCVREALAA | failed
MLGGQYYLIAFILAVIVVWFTTPLINHWGRRAGYVDQPSARKMHHRPMVRLGGVSIFLGSLVALLVVWNLGAFGAMSTKGEWEVWGVVLGGLAFFGIGLFDDLFDLSPFSRLLAQVAIASVVWNMGVRIDFFTLPFLGNLVYLNILSLPITVIWLVGLANAINWIDGLDGLAAGVCGIAAVVLFVLCLFMEQSEAALIAAALAGGALGFLRYNFNPAQIFMGDGGAYFMGFTLGAVAVIGLVKVAAMATVAVTAVLLPYLVLAVPILDMSVVILSRVIKGKSPFKADKGHLHHRLINAGISHRLTVLFIYALTLWAGSLALGFSNIPSGWGFAIGATVLLIYLGWQVWRNSRNVGEQD | failed
MLGSQCAASEPVPAHSLWRGQDMSPNMRGALLMTGSMAAFTCNDTVVKLLGSEMPLFQILVLRSGLSAVWIYFLARRLGALHLRFGRRDRMLVALRCLSEIGATYFFLTALLNMPLANVTAVLQMLPLTVTLGAALFFGEQVGWRRMLAIGLGFCGMLLIVRPGPDGFTLHAIYAMAAVICVTARDLVTRRMSSHVPSLTVTLATALSVMSFGLVGSLTVDWVPLTTDLGLGLLAASLLVLGGYLFSVMVMRIGEVGFVAPFRYSSLLWALVLGWLVFGDWPDPLTMAGVALVVATGLFTLFRERASRHRG | failed
MLGYAAMNRTLRERDPPRRCNRDMQKKTWESEGIEYAATLAAQNFEDLREILLWNRDHGIDFYRCSSKLVPWNSQFDITALPNYERVQSLAAECGALVQDNDMRLTFHPSHWCKLASESDDTVARSVESVEHHGRWLDLMGVPRSPRYAINVHIGAHYGDKAATADRFCDVVSDLAPRARDRLTVENDDTESLWSVQELVTDVASQVDIPVTFDYHHHSFTDRGLTYREGFELARETWDGARPITHYSEPARLRPDSDASPQAHADHVAAVPTWL | failed
MLHFQHTSIINAPPEVVWKFHERPDILQLLTPPWQPVRVVRREGGLEVGAITEFKLFLGPVPLTWLARHTECDKYRLFTDTQISGPFESWIHRHQFQPENGKTKLIDDVSYVMPGGETIEFIGGWLIQAQLEAMFRYRHYVTKRECE | failed
MLHKVVQVRLYPSIEQKVQLAQAFGCSRWWWNYALNKSIETYKETGKGLTRAALNALLPNLKKAEDTCWLADCYSQVLQATTLNLTTAYKNFFEKRAGFPKFKSKHGKQSIQYPQNVKIVDGESSPVRAASRREGGFPSVGNWRSRSVSEGFTRKGNIKLPGNIGIVKAKIHRPIEGKIKTVTVSKTPSGKYLASILTEVEGVSTPLNTSEKPAITEGKIYGIDLGLKHFAVVSDGEKISKYDNPKHLAKHEKNLKRKQKKLARKVKGSNSRNRYRKVVAKVYERVSNSRQDFLHKLSYKLVSDSQAVIVENLHLLGMVRNHKLAKSISDAGWGMFTNFLAYKLERKGGKLVEIDRWFPSSKLCSNCFYQIGEMPLDVREWTCPSCGTHHDRDGNAAINIRAEGIRMIKAEGSAVSAVGGEVSPKLGRKSKFGHSPVITEADTVLGTPSQCG | failed
MLHSTAGWKNMDFKRFSLLIATRTILAMLTLIFLTQAIMSDGYHATVLLLSAVLLIQFFEITRFISKTNAELVRFFEAVRHADFSQRFELKSLGTGFDELGSTFTDILKRIQRVRSNQEAELRHIKAIIEHVPVPLLSIDHNGKITLWNNSVRRLFGTNAVTHIDDMAQFNEDFPKKLQSILAGERTLVHITIDDMEHKLIISATEITTATQQETLLSMQDIQSELALAQLQAWQDLVSVLTHEIMNSITPVASLAKTAVDLVQDVQEKTRTLPAITNEITEELDDVLGAVKTVARRSDGLMQFVTSYRRLTRLPSPNKKTISVATIFDHVTTLAKQNWQKDNIELTASITPQALDIHVDPDMIEQILLNLLLNAEHALITTAGVIEKKNSTPKIALNAFLNVRGHVIIEVADNGKGIENKNMTQIFVPFFTTKKEGSGVGLALTRQVMLAHNGKVAVRNNSQGGATFSLTF | failed
MLHTEKVEYVNQAHEDITGIARDKSIGTNLRDLTFFRQHNALAEQTLAKIFRGDQAKGEVQFSRTDGSRYWLKYIVSQFITDRGNHYALVSGEENSDEHNYKAELEHHHHHH | not failed
MLHYQIEFDDYRQHLVHVTLRFLADPNQELWLPTWIPGSYLIREFSKHIESVQAYDEAGRILEIKKQQKNRWRLFNTDHELITVEYDAYAYDLSVRGAYVDQTRLYINPACVCLALGGQEEKACEVELFLPQELKHFQLATGLPSKSLVKGRFTLKAENYDQLIDSPFELAEQTRFSFEAGNIAHEMVISGIHATNTERLKNDLEKICATEVALFGSAPFQNYTFMTMATGNSYGGLEHCNSTSLIIPRTDLPKLNEPEEPSEDYQRFLGLCSHEYFHSWLVKFIRPENFARYNLNQESYTSLLWIFEGFTSYYDDLILLRSGVISQESYLKLLKAQIDRYLQNPGRQIQSVAESSFDAWIKFYRQDENSNNAGTSYYNKGCLVALCLDLGLRLRGSSLDALLRLLYQNTEKGVQVNERTIFELCQQLTGDSWIEQINHLINTTDELPLDQLFPEFGLSYALKHDKKMPFGMKLQDKPEGVMVQQVNRYGAAATAGLSAQDVIIAIDGLKASEKLLATYAKQQGIITILAFRRDELMSFEVERSTIDLAEVELVVQDQSKADHWLKV | failed
MLHYVHVGNKKSPNTLLFVHGSGCNLKIFGELEKYLEDYNCILLDLKGHGESKGQCPSTVYGYIDNVANFITNSEVTKHQKNITLIGYSMGGAIVLGVALKKLPNVRKVVSLSGGARFDKLDKDFMEKIYHNQLDNNYLLECIGGIDNPLSEKYFETLEKDPDIMINDLIACKLIDLVDNLKNIDIPVKAIVAKDELLTLVEYSEIIKKEVENSELKIFETGKHFLLVVNAKGVAEEIKNFI | not failed
MLIFGFIGLFFLNIFSLHAQGIVTNKDAQEEFKWALNSYNNGIYDDALLSFKKILSFDPNNLDYHFWTGNVYYRLGYVEEALMEWRNLKDQGYKVPYLRHLISTIEQRRGIFSNYELNFKKLVKVASLDNSIYKRPHGYQITSLRADKYGGYYAANFVGNEILYFDVNNNVNALVKDGFSYLKSPYDVIEANNLLYVTLYSSDEIGVYDKVLGVKRKSIGNKGTKDGELLAPQYMAIDKRNYIYVSEWGNKRVSKFGLEGDFILHFGSRTSGYKGLLGPTGVTYLNENIYVADSLRNTIEVFDTSGNHLYSVFTSIEGIEGLSSDFVGNNVIVSSKDGVYKYSIAKKTITKILKADKMNSKISSSILDANNQMIVSDFNNAKVSVYKSDASLYDSLNVDVRRIIRLGGPKIYVELNVSSKSGLPVVGLKSENFSISNENYYIVNPKVAYNVNASKDINIAVVFDKSSYMKKYDTDQIVGLNALMELSKNKNFSFINATSVPIIDNIESLTNSIRNTSSLGPYSTDAVKTDVSLKLAGSGLMSKSSRRAVVYFSGGILNRKAFEKYSLDTIVSYYKNNDIRFYLILFGNDPINSKLQYLVNETGGAVIPFSSYEGVSKVYDLILEQKTGTYLLEYYYPGPQEPNKYFNLSVEANINQQTGRGEFAYFIN | failed
